Our source for the fold decrease of affinity values is publication PMC11021425, “Salmonella manipulates macrophage migration via SteC-mediated myosin light chain activation to penetrate the gut-vascular barrier” (The EMBO Journal, 2024).

The target of this assay is Myl12a, biotinylated (murine) (UniProt Q6ZWQ9). In words: BLI.

In turn, SteC 194 aa–364 aa (domain or fragment) had a fold decrease of affinity of 10 fold.
